We go through 2 molecules from US20230416330A1, “Optimized GIP Peptide Analogues” (Antag Therapeutics ApS, priority 2019, published 2023).

Non-standard residues stand in square brackets, D forms with d. No end group written: not given here. *: point of attachment. C16 diacid = O=C(O)CCCCCCCCCCCCCCC(=O)*; Nle = CCCC[C@H](N)C(=O)O; Aib = CC(C)(N)C(=O)O

This experiment addresses T1, human GIP receptor (human, UniProt P48546 22-466).
T1 sequence (looked up): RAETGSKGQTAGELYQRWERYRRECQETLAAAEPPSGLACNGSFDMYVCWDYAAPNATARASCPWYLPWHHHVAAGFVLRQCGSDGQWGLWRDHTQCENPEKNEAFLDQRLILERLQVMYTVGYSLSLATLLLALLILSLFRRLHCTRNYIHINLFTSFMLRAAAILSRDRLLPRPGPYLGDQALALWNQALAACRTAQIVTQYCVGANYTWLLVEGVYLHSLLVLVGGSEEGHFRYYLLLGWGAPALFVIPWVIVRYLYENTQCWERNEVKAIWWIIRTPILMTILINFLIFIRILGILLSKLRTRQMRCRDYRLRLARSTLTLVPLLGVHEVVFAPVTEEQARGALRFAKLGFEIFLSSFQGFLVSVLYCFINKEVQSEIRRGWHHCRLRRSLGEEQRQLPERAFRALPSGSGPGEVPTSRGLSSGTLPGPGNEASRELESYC
The experiment is described as follows: cell-based or functional assay.

B1: AT674 (peptide)
peptide: EGTFISEYSI[Aib][Nle]EKIK(C16 diacid)QQEFVEWLLAQKPSSGAPPPS-OH
modifications: N-terminus assumed
SMILES: CCCC[C@H](NC(=O)C(C)(C)NC(=O)[C@@H](NC(=O)[C@H](CO)NC(=O)[C@H](Cc1ccc(O)cc1)NC(=O)[C@H](CCC(=O)O)NC(=O)[C@H](CO)NC(=O)[C@@H](NC(=O)[C@H](Cc1ccccc1)NC(=O)[C@@H](NC(=O)CNC(=O)[C@@H](N)CCC(=O)O)[C@@H](C)O)[C@@H](C)CC)[C@@H](C)CC)C(=O)N[C@@H](CCC(=O)O)C(=O)N[C@@H](CCCCN)C(=O)N[C@H](C(=O)N[C@@H](CCCCNC(=O)CCCCCCCCCCCCCCC(=O)O)C(=O)N[C@@H](CCC(N)=O)C(=O)N[C@@H](CCC(N)=O)C(=O)N[C@@H](CCC(=O)O)C(=O)N[C@@H](Cc1ccccc1)C(=O)N[C@H](C(=O)N[C@@H](CCC(=O)O)C(=O)N[C@@H](Cc1c[nH]c2ccccc12)C(=O)N[C@@H](CC(C)C)C(=O)N[C@@H](CC(C)C)C(=O)N[C@@H](C)C(=O)N[C@@H](CCC(N)=O)C(=O)N[C@@H](CCCCN)C(=O)N1CCC[C@H]1C(=O)N[C@@H](CO)C(=O)N[C@@H](CO)C(=O)NCC(=O)N[C@@H](C)C(=O)N1CCC[C@H]1C(=O)N1CCC[C@H]1C(=O)N1CCC[C@H]1C(=O)N[C@@H](CO)C(=O)O)C(C)C)[C@@H](C)CC
In the case of B1, the “cAMP antagonism % inhib (CisBio assay)” value worked out at 93%; the “cAMP antagonism nM (IC50, CisBio assay)” value came to 0.447 nM; the “cAMP antagonism pIC50 (CisBio assay)” value was 9.4.

B2: AT673 (peptide)
peptide: EGTFISEYSI[Aib]LEKIK(C16 diacid)QQEFVEWLLAQKPSSGAPPPS-OH
modifications: N-terminus assumed
SMILES: CC[C@H](C)[C@H](NC(=O)[C@H](CCCCN)NC(=O)[C@H](CCC(=O)O)NC(=O)[C@H](CC(C)C)NC(=O)C(C)(C)NC(=O)[C@@H](NC(=O)[C@H](CO)NC(=O)[C@H](Cc1ccc(O)cc1)NC(=O)[C@H](CCC(=O)O)NC(=O)[C@H](CO)NC(=O)[C@@H](NC(=O)[C@H](Cc1ccccc1)NC(=O)[C@@H](NC(=O)CNC(=O)[C@@H](N)CCC(=O)O)[C@@H](C)O)[C@@H](C)CC)[C@@H](C)CC)C(=O)N[C@@H](CCCCNC(=O)CCCCCCCCCCCCCCC(=O)O)C(=O)N[C@@H](CCC(N)=O)C(=O)N[C@@H](CCC(N)=O)C(=O)N[C@@H](CCC(=O)O)C(=O)N[C@@H](Cc1ccccc1)C(=O)N[C@H](C(=O)N[C@@H](CCC(=O)O)C(=O)N[C@@H](Cc1c[nH]c2ccccc12)C(=O)N[C@@H](CC(C)C)C(=O)N[C@@H](CC(C)C)C(=O)N[C@@H](C)C(=O)N[C@@H](CCC(N)=O)C(=O)N[C@@H](CCCCN)C(=O)N1CCC[C@H]1C(=O)N[C@@H](CO)C(=O)N[C@@H](CO)C(=O)NCC(=O)N[C@@H](C)C(=O)N1CCC[C@H]1C(=O)N1CCC[C@H]1C(=O)N1CCC[C@H]1C(=O)N[C@@H](CO)C(=O)O)C(C)C
On to B2, for which the “cAMP antagonism % inhib (CisBio assay)” value came out at 94%; the “cAMP antagonism nM (IC50, CisBio assay)” value came out at 0.136 nM; the “cAMP antagonism pIC50 (CisBio assay)” value stood at 9.9.
